From the supplement of paper PMC10724198
± gives the standard deviation of the averaged measurements.

Columns and labels:
Saccharomyces cerevisiae [1] = test: protein stability index of tFT-peptide fusion (C-terminal peptide) (PSI (0-1 scale)); higher = more stable (slower turnover)
Description: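 MPS profiling in S. cerevisiae of the tFT-X12 degron library: putative degron peptides plus stable controls, 12 aa, fused to the C-terminus of a sfGFP-mCherry timer. Cells are FACS-sorted into 8 mCherry/sfGFP bins and deep-sequenced. PSI runs from 0 (unstable) to 1 (stable). Backgrounds are wild type, das1Δ and doa10Δ at 30 °C, and wild type, das1Δ, cdc34-1 and cdc53-1 at 37 °C; 2-3 technical replicates each.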

Saccharomyces cerevisiae [2] = test: as above; conditions: genetic background: wild type; temperature: 30 C
[3] = genetic background: cdc34-1, temperature: 37 C
[4] = genetic background: cdc53-1, temperature: 37 C
[5] = genetic background: das1 deletion, temperature: 30 C
[6] = genetic background: das1 deletion, temperature: 37 C
[7] = genetic background: doa10 deletion, temperature: 30 C
[8] = genetic background: wild type, temperature: 30 C
[9] = genetic background: wild type, temperature: 37 C
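Further: PSI is a weighted mean of sequencing reads over stability bins, variants kept only with over 10 reads, mCherry proximal and sfGFP distal, peptide attached via GGGS linker.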

Sequence	protein stability index (Saccharomyces cerevisiae [1]; [3])	protein stability index (Saccharomyces cerevisiae [1]; [4])	protein stability index (Saccharomyces cerevisiae [1]; [5])	protein stability index (Saccharomyces cerevisiae [1]; [6])	protein stability index (Saccharomyces cerevisiae [1]; [7])	protein stability index (Saccharomyces cerevisiae [1]; [8])	protein stability index (Saccharomyces cerevisiae [1]; [9])	protein stability index (Saccharomyces cerevisiae [2])
WYVRVYVLSVES	0.136 ± 0.021	0.176 ± 0.028	0.186 ± 0.029	0.3115 ± 0.0015	0.137 ± 0.0079	0.168 ± 0.018	0.264 ± 0.022	0.237 ± 0.019
LIVFSGFLFLLS	0.442 ± 0.01	0.53 ± 0.049	0.373 ± 0.031	0.5639 ± 0.0056	0.3758 ± 0.0014	0.364 ± 0.023	0.5096 ± 0.0027	
APPLPFPTPPPS	0.68 ± 0.031	0.747 ± 0.034	0.644 ± 0.042	0.693 ± 0.038	0.647 ± 0.029	0.633 ± 0.029	0.678 ± 0.0098	
RLLLLPGPLALQ	0.634 ± 0.022	0.73 ± 0.034	0.67 ± 0.022	0.7 ± 0.016	0.685 ± 0.054	0.673 ± 0.021	0.714 ± 0.062	
RRAVGLANFTIK	0.705 ± 0.016	0.773 ± 0.035	0.678 ± 0.062	0.693 ± 0.028	0.639 ± 0.06	0.671 ± 0.019	0.706 ± 0.022	
VLICFSVFSWVV	0.0264 ± 0.00023	0.0313 ± 0.00079	0.0368 ± 0.01	0.0531 ± 0.0097	0.0228 ± 0.0066	0.0178 ± 0.0049	0.0371 ± 0.0086	
PVPERTSATEPP	0.61 ± 0.052	0.667 ± 0.029	0.617 ± 0.038	0.6671 ± 0.006	0.634 ± 0.0083	0.627 ± 0.019	0.655 ± 0.0013	
FGGVFCVMARLV	0.602 ± 0.14	0.685 ± 0.016	0.629 ± 0.034	0.689 ± 0.01	0.318 ± 0.0054	0.356 ± 0.025	0.506 ± 0.0059	
AVTMSYQCGIFI	0.646 ± 0.029	0.672 ± 0.031	0.564 ± 0.0081	0.71 ± 0.028	0.5372 ± 0.0042	0.566 ± 0.019	0.68 ± 0.022	
VPPGCSLFAFIL	0.7246 ± 0.005	0.75537 ± 0.00043	0.644 ± 0.025	0.7794 ± 0.005	0.555 ± 0.032	0.547 ± 0.019	0.73 ± 0.01	
IRRWGRCRVRCM	0.584 ± 0.029	0.655 ± 0.034	0.428 ± 0.037	0.616 ± 0.018	0.255 ± 0.0087	0.288 ± 0.028	0.52896 ± 2.4e-05	
GGGGGGRWGRLC	0.634 ± 0.047	0.752 ± 0.031	0.66 ± 0.019	0.7572 ± 0.0018	0.189 ± 0.0036	0.232 ± 0.018	0.478 ± 0.0099	
GGGGGCLSGRLG								0.654 ± 0.028
LPPPRSPPPLSA								0.622 ± 0.057
TRPSGSFLALPP								0.685 ± 0.05
GFGSGVVAGSSL								0.682 ± 0.044
SPPASFPLPPPP								0.6802 ± 0.0015
RAGCWFAGYSRV								0.721 ± 0.078
KKGKIKKFIIKK								0.694 ± 0.17
VFLLFFFPCSSR								0.528 ± 0.013
PRTLTPVCPAPH								0.702 ± 0.015
KTLALSAQHPGS								0.645 ± 0.012
